Laboratory results from paper PMC11784651 (mAbs, 2025).

Target: human CD38 extracellular domain (hsCD38 ECD) used for crystallization (Homo sapiens, stabilised)
Test: crystal structure

binding result	Binder
binds	anti-CD38 B6-D9 Fab (Fab, V domains shown) VH: QVQLVQSGAEVKKPGSSVKVSCKASGGFFSHYIINWVRQAPGQGLEWMGRVIPVIDDAYYAQKFQGRVTITADESTSTAYMELSSLRSEDTAVYYCARSRGYYGSFYFDIWGQGTLVTVSS VL: not shown
binds	anti-CD38 E2-RecA Fab (Fab, V domains shown) VH: QVQLVQSGAEVKKPGSSVKVSCKASGLPDATYAIGWVRQAPGQGLEWMGRIIPRLDAEHYAQKFQGRVTITADESTSTAYMELSSLRSEDTAVYYCARGLGYYLYSSYYFDIWGQGTLVTVSS VL: not shown
